In the RNAGym collection of RNA variant scans (doi:10.1073/pnas.2313332121):

B1: TPR t1 (parent)
chain: GACCAAUCUGCCCUCAGAGCUCGAGAACAUCUUCGGAUGCAGAGGAGGCAGGCUUCGGUGGCGCGAUAGCGCCAACGUCCUCAACCUCCAAUGCAUCCCACCACAUGAUGAUGCCUGAAGAGCCUUGGUUUUUUG

Variants of: B1
Assay: polymerase ribozyme fitness, log enrichment relative to wild type (log ratio); higher = more active; in vitro selection for triplet polymerase activity
Method in brief: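 Fitness compares each genotype's enrichment to that of the wild type on a logarithmic scale, averaging replicates with inverse-variance weights. The logarithm is base 2. Enrichment came from Illumina sequencing of input and output libraries after one triplicate round of in vitro selection, which included frozen incubation at −7 °C, of PCR-built, transcribed mutant libraries of each subunit of a heterodimeric triplet polymerase ribozyme. Only genotypes with ≥10 input reads and ≥1 read per output were kept.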

Point of comparison: G42U G47A G69A, “polymerase ribozyme fitness (log ratio)” value -4.71. Against it:
- A41U G69U — higher, -0.159
- G42A C72G — higher, -2.43
- G42A C72A — higher, -1.98
- G42A U112G — higher, -2.1
- G42C C49A — higher, -1.88
- G42C C72U G113C — higher, -2.98
- G42C G71U G117C — within 0.2 log units, -4.87
- G42C C88G C114G — higher, -4.43
- G42C C70A C104U — higher, -4.4
- G42U C49U — higher, -2.98
- G42A G63C C86A — higher, -3.7
- G42U G69C — higher, -2.39
- G42U G69U — higher, -0.0944
- G42C G45U U133A — higher, -2.53
- G42A G60U — higher, -2.08
- G42A G45C — higher, -2.81
- G42C C49G C72G — higher, -3.71
- G42A G69U C89G — higher, -0.811
- G42C A111G — higher, -1.3
- G42A U54C — higher, -1.78
- A41U C101U — higher, -1.85
- A41U G63A C101A G113A A118U — higher, -4.42
- G42U C82U — higher, -1.44
- G42U C82A — higher, -1.61
- G42A C73A C89G — higher, -2.01
- G42C C72U — higher, -1.39
- G42U G77U U106A G120C — higher, -2
- G42C A118G — higher, -1.93
- G42U G48A G52C C56G G69U G127U — higher, -3.16
- G42A C70U U81A G93U — lower, -6.73
- G42C G63A G93C G113U — lower, -5.92
- G42U C82G C115G — higher, -3.58
- G42U G63A A111G U112G C115A — lower, -6
- G42A G48U C56U C114U U131C — higher, -3.37
- A41U G58C C89G — higher, -2.91
- G42U G44U C53U G69U C79A G127U — higher, -3.88
- A43C A46C G60A U87A C101U — higher, -2.45
- G42U U78A U81A U112A — higher, -3.13
- G42C C102A — higher, -4.06
- G42U A43C C104U — higher, -0.998
- G42A G117C — higher, -3.8
- G42C G128U U130A G135U — higher, -4.23
- G42A A66G C70U C89A U132A — lower, -5.56
- G42C G61C — higher, -4.07
- G42U G60A U87A G113A — higher, -3.78
- A41U G61C — higher, -3.99
- A41U G42C G60U — higher, -2.24
- G42U A119U — higher, -1.27
- G42C A103G C114G G122U — lower, -6.92
- A41U G128A — higher, -2.79
- G42A G77U G120C — higher, -1.93
- G42A A118U — higher, -1.15
- G42U G44A C70A G127U — higher, -4.25
- G42C C53G — higher, -1.2
- A43C — higher, -2.17
- G42U G113U — higher, -3.06
- G42U G113C — higher, -3.23
- G42U C62A — higher, -3.21
- G42U C88U G113U A121U U131G — higher, -1.8
- G42C C89G — higher, -1.06
- G42C U78A C85U C123G G135U — higher, -2.89
- G42C C79U A95G U129C — higher, -2.57
- G42C C89U C102A — lower, -5.66
- G42C G44C — higher, -0.912
- G42A C70A — higher, -4.1
- G42A G48A G69C — higher, -4.05
- G42A C72G G93U — higher, -3.39
- A41U C88G — higher, -2.13
- A41U C88U — higher, -1.27
- A41U G57C C62U — higher, -0.95
- A41U U112A — higher, -0.325
- A41U U112C — higher, 0.631
- G42A G120U — higher, -1.82
- A41U C123G G135U — higher, 0.204
- G42U U92A A118U — higher, -2.03
- G42U C70G — lower, -4.95
- G42C G48C U55C — higher, -1.95
- G42U A68C G107C C114U G128C U133G — lower, -6.38
- G42A C72U C85U — higher, -2.92
- G42A C62U A83U C85U C124G G128U — higher, -3.77
- G42U C72A — higher, -0.339
- G42U C72G — higher, -2.53
- G42A G117C A119U — higher, -3.55
- A41U G63A C124U — higher, -1.14
- G42C C49A G93C — higher, -3.52
- G42C G69U A91U C102U — higher, -0.697
- G42A C88A G110A — higher, -4.27
- G42C G47U G52C C114A A118G — lower, -6.7
- G42A A100C U112G — within 0.2 log units, -4.73
- G42U C56U G127U — higher, -2.75
- G42U C76U A84U C88U — higher, -2.62
- G42U C56U C115G — higher, -2.13
- G42U C49A G69U — higher, 0.552
- A41U C82U A103U G110C G122A — lower, -7.14
- A41U U78G C82U A91G A121C — higher, -1.41
- G42U G52A C72U U78A G128U — higher, -4.36
- G42A C88G — higher, -2.63
- G42A C88A — higher, -1.56
- G42C G52U G60C — higher, -2.14
- A41U U129C — higher, -0.914
- G42A A119G — higher, -0.491
- G42A A103U U112A — lower, -7.34
- G42U G63A — higher, -2.77
- G42U G63C — higher, -2.22
- G42A A46U C53A U87A — higher, -2.21
- A41U G61C C115A G117A — lower, -5.8
- A41U G93A U112A — higher, -1.69
- G42C C70G — lower, -5.52
- G42U A75G G93C — higher, -2.29
- A41U C97U — higher, -2.14
- A41U U125G — higher, -1.97
- G42A G44A G47U C64U — higher, -4.22
- G42U G52A C101U — higher, -1.81
- G42A G93A C114U — higher, -3.01
- A41U G69U U78G C123U — higher, 1.47
- A41U U92C — higher, -1.21
- G42A G61A A83U A121U — higher, 0.412
- G42A G44C A46U G71U A111G G120A — higher, -3.41
- G42U G47C C49G — higher, -2.84
- G42U A68U C123G U130A — lower, -5.54
- G42U A83C G127U — higher, -2.25
- A41U G63A — higher, -2.73
- G42U A50C A83G C97G C99U U106A G113U C124A — lower, -7.66
- A41U G127C — higher, -2.91
- G42C U87A — higher, -1.23
- G42C U87G — higher, -1.08
- G42U G71U G127U — higher, -2.72
- G42A G63C C94G U130G — the same, -4.71
- G42U U96C — higher, -1.58
- G42C U106A C115U G120U — higher, -4.34
- A41U U87C A90U A91C — higher, -1.28
- G42U U78A — higher, -2.36
- G42A C89A A108G — within 0.2 log units, -4.56
- G42A C85A C94U — higher, -3.73
- G42A C72A C123A — higher, -1.85
- G42C G71U A84U — higher, -3.18
- G42A G52C C62A — within 0.2 log units, -4.83
- G42C C76A U78A — higher, -2.31
- A41U G71A U92A G127C — higher, -3.79
- G42C G69U A91U C102U C123U — higher, -0.432
- G42C G117A — higher, -2.18
- G42U A91C G117C — higher, -3.63
- A41U G42C C70A — lower, -6.24
- G42U A74U — higher, -2.19
- G42A A43G C56A A66U A91G U96A U112G — lower, -6.49
- G42U U125A — higher, -1.61
- A41U C94G — higher, -1.87
- G42A U59G C73U U112G C123A — higher, -4.46
- G42A G60C C82A — higher, -3.4
- A41U C124U — higher, 0.983
- A41U C124A — higher, 0.11
- G42C A50U C76G A111U — lower, -6.27
- G42C C115U — higher, -2.24
- G42A U59A — higher, -1.76
- G42C A43U C86U U96C — higher, -2.55
- G42A C49U U112C — higher, -0.387
- G42U G120A — higher, -1.14
- G42A C70U G117A — higher, -4.31
- G42U C73A U125A — higher, -1.74
- A41U G60U C85A C94U — higher, -1.72
- G42A G44C G47C C97U G120U U130C — higher, -3.09
- G42C C56A — higher, -1.76
- G42U C62A C73U U112C U130G — higher, -3.26
- G42A U116A — higher, -3.72
- A41U G69C U78C A100U — lower, -6.25
- G42U C101U G113C — higher, -2.52
